Data taken from US20210388081A1 (Memorial Sloan Kettering, published 2021).

T1: FcRL1, overexpressed on 3T3 cells (UniProt Q96LA6 17-429, limits assumed)
T1 construct: whole, on cells
T1 sequence (looked up): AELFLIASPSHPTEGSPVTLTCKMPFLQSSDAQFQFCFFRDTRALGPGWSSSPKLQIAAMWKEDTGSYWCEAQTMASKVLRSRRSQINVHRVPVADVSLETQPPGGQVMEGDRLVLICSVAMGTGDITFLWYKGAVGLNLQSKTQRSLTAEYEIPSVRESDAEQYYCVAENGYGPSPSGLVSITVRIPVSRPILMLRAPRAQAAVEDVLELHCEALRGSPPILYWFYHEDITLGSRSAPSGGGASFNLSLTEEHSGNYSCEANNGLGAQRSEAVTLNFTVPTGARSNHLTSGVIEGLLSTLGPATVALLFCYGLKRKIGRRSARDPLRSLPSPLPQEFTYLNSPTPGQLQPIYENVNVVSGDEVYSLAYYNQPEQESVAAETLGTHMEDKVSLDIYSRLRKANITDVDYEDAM

T2: FcRL3, overexpressed on 3T3 cells (UniProt Q96P31 18-734, limits assumed)
T2 construct: whole, on cells
T2 sequence (looked up): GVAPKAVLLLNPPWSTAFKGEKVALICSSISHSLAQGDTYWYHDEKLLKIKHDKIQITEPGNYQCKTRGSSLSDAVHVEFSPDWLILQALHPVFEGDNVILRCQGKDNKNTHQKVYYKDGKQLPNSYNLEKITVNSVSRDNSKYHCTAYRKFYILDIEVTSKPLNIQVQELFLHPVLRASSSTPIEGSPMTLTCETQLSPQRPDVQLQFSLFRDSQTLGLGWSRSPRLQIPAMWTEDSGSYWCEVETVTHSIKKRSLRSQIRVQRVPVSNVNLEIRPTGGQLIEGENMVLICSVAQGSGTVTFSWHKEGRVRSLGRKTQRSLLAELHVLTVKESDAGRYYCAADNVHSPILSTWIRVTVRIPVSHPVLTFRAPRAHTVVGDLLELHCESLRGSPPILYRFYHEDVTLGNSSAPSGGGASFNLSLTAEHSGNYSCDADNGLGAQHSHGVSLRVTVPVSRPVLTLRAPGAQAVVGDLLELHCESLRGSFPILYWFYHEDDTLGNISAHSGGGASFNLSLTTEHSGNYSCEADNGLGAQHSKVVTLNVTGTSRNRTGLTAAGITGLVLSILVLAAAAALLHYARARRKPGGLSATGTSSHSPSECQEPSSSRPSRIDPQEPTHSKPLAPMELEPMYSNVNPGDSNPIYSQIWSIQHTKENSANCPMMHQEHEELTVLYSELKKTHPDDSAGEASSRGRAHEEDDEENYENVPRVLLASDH


Experiments:
[1] = target: T1, FcRL1, overexpressed on 3T3 cells; experiment: phage clone on 3T3-FcRL1 cells
[2] = target: T2, FcRL3, overexpressed on 3T3 cells; experiment: phage clone on 3T3-FcRL3 cells

Binder	binding result [1]	binding result [2]
ET200-008 (scFv, screened as phage clone; entry is VL-linker-VH-His tag-HA tag) scFv: QSALTQPASVSGSPGQSITISCTGTSSDVGGYNYVSWYQQHPGKAPKLMIYDVSNRPSGVSNRFSGSKSGNTASLTISGLQAEDEADYYCSSYTSSSTSKVFGGGTKLTVLGSRGGGGSGGGGSGGGGSLEMAEVQLVESGGGVVRPGGSLRLSCAASGFTFGDYGMSWVRQAPGKGLEWVSGINWNGGSTGYADSVKGRFTISRDNAKNSLYLQMNSLRAEDTAVYYCARSKYNFHVYYDYWGQGTLVTVSSTSGQAGQHHHHHHGAYPYDVPDYAS	no binding	no binding
ET200-125 (scFv, screened as phage clone; entry is VL-linker-VH-His tag-HA tag) scFv: NFMLTQPHAVSESPGKTVTISCTRSSGSIASNYVQWYQQRPGSSPRTVIYEDNQRPSGVPGRFSGSIDSSSNSASLTISGLKTEDEADYYCQSYDSTSVLFGGGTKLTVLGSRGGGGSGGGGSGGGGSLEMAEVQLVQSGAEVKKPGSSVKVSCKASGGTFSSNSLSWVRQAPGQGLEWMGRIFPILGITNYAQKFQGRVTITADKSTSTAYMELSSLRSEDTAVYYCARGNYQWYDAFDIWGQGTMVTVSSTSGQAGQHHHHHHGAYPYDVPDYAS	no binding	no binding
ET200-124 (scFv, screened as phage clone; entry is VL-linker-VH-His tag-HA tag) scFv: SYVLTQPPSVSVAPGKTARISCGGNDIGSKSVFWYQQRPGQAPVLVVYDDSDRPSGLPERFSGFNSGNTATLTISRVEAGDEADYYCQVWDSSSDHYVFGTGTKVTVLGSRGGGGSGGGGSGGGGSLEMAQVQLVESGGGLVQPGRSLRLSCAASGFTFDDYAMHWVRQAPGKGLEWVSGISWNSGSIGYADSVKGRFTISRDNAKNSLYLQMNSLRAEDTALYYCAKDITYGSGSYGAFDIWGQGTMVTVSSTSGQAGQHHHHHHGAYPYDVPDYAS	no binding	no binding
ET200-010 (scFv, screened as phage clone; entry is VL-linker-VH-His tag-HA tag) scFv: QSALTQPASVSGSPGQSITISCTGTSSDVGGYNSVSWYQQHPGKAPRLMIYDVSNRPSGVSNRFSGSKSGNTASLTISGLQAEDEADYYCSSYTSSSTPLVFGTGTKVTVLGSRGGGGSGGGGSGGGGSLEMAQVQLVQSGAEVKKPGASVKVSCKASGYTFTSYGISWVRQAPGQGLEWMGWISAYNGNTNYAQKLQGRVTMTTDTSTSTAYMELRSLRSDDTAVYYCARGAVAYHDWGQGTLVTVSSTSGQAGQHHHHHHGAYPYDVPDYAS	no binding	no binding
ET200-009 (scFv, screened as phage clone; entry is VL-linker-VH-His tag-HA tag) scFv: QSVLTQPPSASGTPGQTVTISCSGSNSNIGSNYVYWYQQLPGTAPKLLIYRNNQRPSGVPDRFSGSKSGTSASLAISGLRSEDEADYYCAAWDDSLSAYVFGTGTKVTVLGSRGGGGSGGGGSGGGGSLEMAQVQLVQSGAEVKKPGASVKVSCKASGYTFTSYGISWVRQAPGQGLEWMGWISAYNGNTNYAQKLQGRVTMTTDTSTSTAYMELRSLRSDDTAVYYCARSSGNMVSWKDMWGQGTLVTVSSTSGQAGQHHHHHHGAYPYDVPDYAS	no binding	no binding
ET200-123 (scFv, screened as phage clone; entry is VL-linker-VH-His tag-HA tag) scFv: QAVLTQPPSASGTPGQRVTISCSGSSSNIGSNTVNWYQQLPGTAPKLLMYNNDQRPSGVPDRFSGSKSGTSASLAISGLQSEDEADYYCAAWDDSLNGYVFGPGTKVTVLGSRGGGGSGGGGSGGGGSLEMAQVQLVESGAEVKKPGASVKVSCKASGYTFTSYGISWVRQAPGQGLEWMGWISAYNGNTNYAQKLQGRVTMTTDTSTSTAYMELRSLRSDDTAVYYCARDLSRGANPHYYYYYGMDVWGQGTTVTVSSTSGQAGQHHHHHHGAYPYDVPDYAS	no binding	no binding
ET200-121 (scFv, screened as phage clone; entry is VL-linker-VH-His tag-HA tag) scFv: QSVLTQPPSVSGAPGQRVTVSCTGSRSNIGAGYDVHWYQQLPGTAPKLLIYGNSNRPPGVPDRFSGSKSGTSASLVITGLQAEDAADYYCQSYDNTVRESPYVFGTGTKVTVLGSRGGGGSGGGGSGGGGSLEMAEVQLVQSGAEVKKPGASVKVSCKVSGYTLTELSMHWVRQAPGKGLEWMGGFDPEDGETIYAQKFQGRVTMTEDTSTDTAYMELSSLRSEDTAVYYCATESNLVSRHYYYYGMDVWGQGTTVTVSSTSGQAGQHHHHHHGAYPYDVPDYAS	no binding	no binding
ET200-005 (scFv, screened as phage clone; entry is VL-linker-VH-His tag-HA tag) scFv: QPVLTQPPSVSVVPGKTARITCGGKNIGSKSVHWYQQKPGQAPVVVIHYDSDRPSGIPERFSGSNSGNTATLTISRVEAGDEADYYCQVWDSSSDHPYVFGTGTKVTVLGSRGGGGSGGGGSGGGGSLEMAQVQLVQSGAEVKKPGASVKVSCKASGYTFTNYGISWVRQAPGQGLEWMGWISAYNGNTNYAHKLQGRVTMTTDTSTSTANMELRSLRPDDTAVYYCARSYFGSHDYWGQGTLVTVSSTSGQAGQHHHHHHGAYPYDVPDYAS	no binding	no binding
